Values of other authors as cited in paper PMC8834348.

Tests used:
[1] = target: flotillin 1 (Homo sapiens) (UniProt O75955)
[2] = target: flotillin 2 (Homo sapiens) (UniProt Q14254)
Sequence of UniProt Q14254 (Q14254 2-428): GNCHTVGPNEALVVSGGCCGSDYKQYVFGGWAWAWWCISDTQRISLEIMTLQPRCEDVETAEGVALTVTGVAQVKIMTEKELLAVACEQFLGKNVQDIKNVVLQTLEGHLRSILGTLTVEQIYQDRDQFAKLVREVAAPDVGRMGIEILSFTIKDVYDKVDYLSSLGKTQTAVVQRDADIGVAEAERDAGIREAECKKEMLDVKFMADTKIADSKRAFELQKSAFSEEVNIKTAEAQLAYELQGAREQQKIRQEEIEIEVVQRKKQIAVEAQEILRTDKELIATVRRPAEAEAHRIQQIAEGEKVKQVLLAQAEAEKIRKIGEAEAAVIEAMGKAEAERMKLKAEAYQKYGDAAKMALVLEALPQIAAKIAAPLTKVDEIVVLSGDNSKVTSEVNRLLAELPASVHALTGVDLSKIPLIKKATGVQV

Sequence of UniProt O75955 (O75955 whole entry): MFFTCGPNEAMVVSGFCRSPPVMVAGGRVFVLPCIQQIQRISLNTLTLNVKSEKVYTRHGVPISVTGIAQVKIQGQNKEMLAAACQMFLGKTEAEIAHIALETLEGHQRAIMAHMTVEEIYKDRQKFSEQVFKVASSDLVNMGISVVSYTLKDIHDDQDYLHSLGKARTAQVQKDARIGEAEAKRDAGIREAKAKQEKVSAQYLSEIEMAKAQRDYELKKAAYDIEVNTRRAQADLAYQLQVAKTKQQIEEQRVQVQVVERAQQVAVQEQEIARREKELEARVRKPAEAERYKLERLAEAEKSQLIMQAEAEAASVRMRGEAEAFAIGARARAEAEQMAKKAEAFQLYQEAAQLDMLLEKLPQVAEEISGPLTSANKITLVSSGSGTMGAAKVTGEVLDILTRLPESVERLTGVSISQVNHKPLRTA

MPP1 D5 domain (from UniProt Q00013)
Kd [1]: 30 nM | Kd [2]: 30 nM
